Where two headings read alike, the source gives them in different places.

Kd data for 1 substance are collected here from publication PMC7135739.

Experiment in all cases: microtiter plate binding assay
The target of assay [1] is Bovine cardiac myosin (bovine) (UniProt Q9BE39).
The target is the same in assay [2]. The source holds these as a separate data set.
In assay [3] the target is Rabbit skeletal muscle myosin (rabbit) (UniProt Q28641).
Sequence of UniProt Q28641 (Q28641 whole entry, chain 1 of 3): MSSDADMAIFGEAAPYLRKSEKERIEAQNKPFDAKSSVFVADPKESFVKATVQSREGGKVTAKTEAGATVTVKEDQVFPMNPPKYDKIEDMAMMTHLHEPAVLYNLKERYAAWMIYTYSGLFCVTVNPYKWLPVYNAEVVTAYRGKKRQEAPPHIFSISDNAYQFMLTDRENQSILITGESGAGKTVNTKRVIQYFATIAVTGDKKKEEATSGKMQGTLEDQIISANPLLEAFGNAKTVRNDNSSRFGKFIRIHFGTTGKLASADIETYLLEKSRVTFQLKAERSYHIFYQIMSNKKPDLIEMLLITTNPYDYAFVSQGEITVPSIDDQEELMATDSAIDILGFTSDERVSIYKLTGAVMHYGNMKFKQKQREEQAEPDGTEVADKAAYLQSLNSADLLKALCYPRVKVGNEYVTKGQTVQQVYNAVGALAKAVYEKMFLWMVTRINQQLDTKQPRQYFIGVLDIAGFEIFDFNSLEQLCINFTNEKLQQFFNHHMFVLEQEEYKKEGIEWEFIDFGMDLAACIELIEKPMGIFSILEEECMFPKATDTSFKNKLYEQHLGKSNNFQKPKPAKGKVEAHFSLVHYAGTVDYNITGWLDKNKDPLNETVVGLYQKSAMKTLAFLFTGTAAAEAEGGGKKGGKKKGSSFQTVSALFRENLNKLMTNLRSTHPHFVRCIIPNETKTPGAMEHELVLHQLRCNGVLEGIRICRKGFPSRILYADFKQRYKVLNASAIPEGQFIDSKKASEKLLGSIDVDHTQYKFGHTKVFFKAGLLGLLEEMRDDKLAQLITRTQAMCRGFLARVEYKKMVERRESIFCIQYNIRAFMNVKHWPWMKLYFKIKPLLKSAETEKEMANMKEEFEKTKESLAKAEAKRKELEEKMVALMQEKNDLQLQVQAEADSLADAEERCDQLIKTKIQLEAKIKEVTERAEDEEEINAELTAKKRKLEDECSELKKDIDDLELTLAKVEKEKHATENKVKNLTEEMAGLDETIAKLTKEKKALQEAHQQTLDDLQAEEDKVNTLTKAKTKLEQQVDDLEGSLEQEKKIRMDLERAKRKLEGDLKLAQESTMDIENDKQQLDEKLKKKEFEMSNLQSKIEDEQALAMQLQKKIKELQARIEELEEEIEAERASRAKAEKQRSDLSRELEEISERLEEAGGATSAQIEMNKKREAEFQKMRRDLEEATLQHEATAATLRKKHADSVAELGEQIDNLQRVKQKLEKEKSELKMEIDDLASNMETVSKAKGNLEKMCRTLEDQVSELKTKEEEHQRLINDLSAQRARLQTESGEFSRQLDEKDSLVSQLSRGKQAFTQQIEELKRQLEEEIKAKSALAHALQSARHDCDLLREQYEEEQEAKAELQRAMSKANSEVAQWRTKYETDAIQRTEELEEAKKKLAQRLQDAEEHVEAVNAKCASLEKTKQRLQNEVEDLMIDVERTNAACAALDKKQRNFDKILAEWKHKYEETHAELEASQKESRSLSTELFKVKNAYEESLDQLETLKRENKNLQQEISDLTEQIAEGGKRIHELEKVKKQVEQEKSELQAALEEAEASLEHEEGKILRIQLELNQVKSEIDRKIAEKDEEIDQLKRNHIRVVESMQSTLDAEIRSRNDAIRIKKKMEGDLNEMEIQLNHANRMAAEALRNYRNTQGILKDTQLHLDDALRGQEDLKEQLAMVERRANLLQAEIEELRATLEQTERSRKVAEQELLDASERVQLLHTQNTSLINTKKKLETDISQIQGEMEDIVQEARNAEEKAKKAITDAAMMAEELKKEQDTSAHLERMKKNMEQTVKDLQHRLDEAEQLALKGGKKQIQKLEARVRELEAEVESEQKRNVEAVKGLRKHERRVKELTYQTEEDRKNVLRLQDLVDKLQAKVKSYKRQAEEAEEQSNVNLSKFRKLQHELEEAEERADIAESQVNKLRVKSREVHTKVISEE
Sequence of UniProt Q28641 (P02602 2-192, chain 2 of 3, further chain): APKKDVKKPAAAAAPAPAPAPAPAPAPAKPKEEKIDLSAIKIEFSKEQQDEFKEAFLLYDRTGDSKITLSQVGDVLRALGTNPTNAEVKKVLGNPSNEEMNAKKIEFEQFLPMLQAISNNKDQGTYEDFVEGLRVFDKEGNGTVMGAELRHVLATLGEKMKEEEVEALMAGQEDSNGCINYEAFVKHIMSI
Sequence of UniProt Q28641 (P02608 2-170, chain 3 of 3, further chain): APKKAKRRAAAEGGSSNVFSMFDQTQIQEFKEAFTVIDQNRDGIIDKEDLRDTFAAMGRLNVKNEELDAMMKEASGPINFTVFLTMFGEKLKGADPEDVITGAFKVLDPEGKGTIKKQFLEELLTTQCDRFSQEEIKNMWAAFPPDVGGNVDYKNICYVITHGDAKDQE

Take Human factor Xa (enzyme): the Kd in assay [1] was found to be 21 nM; in assay [2] it was 108 nM; in assay [3], 80.4 nM.

By Kd is commonly meant the concentration at which binding is half-saturated. A higher Kd goes with a looser complex.
